# Experimental data from paper PMC5170556 (Molecular Biology of the Cell, 2016).
# T1: C-terminally green fluorescent protein–tagged Bim1 (S. cerevisiae, UniProt P40013 1-344)
# T1 sequence (looked up): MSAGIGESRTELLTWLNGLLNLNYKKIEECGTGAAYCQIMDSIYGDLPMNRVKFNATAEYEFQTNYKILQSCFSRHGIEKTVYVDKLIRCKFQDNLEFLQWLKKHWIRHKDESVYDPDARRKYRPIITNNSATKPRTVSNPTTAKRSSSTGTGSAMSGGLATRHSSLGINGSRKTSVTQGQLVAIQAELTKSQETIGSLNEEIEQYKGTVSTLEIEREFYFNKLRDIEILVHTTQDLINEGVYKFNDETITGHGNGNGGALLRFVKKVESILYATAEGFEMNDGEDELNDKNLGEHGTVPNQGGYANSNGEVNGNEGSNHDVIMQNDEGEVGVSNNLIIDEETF
# T2: Bim1 (full-length) (S. cerevisiae, UniProt P40013 1-344)
# T2 sequence (looked up): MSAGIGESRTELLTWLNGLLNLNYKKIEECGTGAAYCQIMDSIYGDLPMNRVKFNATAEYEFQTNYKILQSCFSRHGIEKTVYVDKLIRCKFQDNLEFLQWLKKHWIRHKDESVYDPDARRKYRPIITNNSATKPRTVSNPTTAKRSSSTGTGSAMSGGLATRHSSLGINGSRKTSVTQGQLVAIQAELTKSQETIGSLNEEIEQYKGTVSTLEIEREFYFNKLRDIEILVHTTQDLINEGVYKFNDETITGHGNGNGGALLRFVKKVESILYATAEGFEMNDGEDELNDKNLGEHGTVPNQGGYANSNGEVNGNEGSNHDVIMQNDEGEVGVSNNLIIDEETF
# How the values were obtained:
# [1] = biological target: T1, C-terminally green fluorescent …; test: AUC
# [2] = biological target: T2, Bim1 (full-length); test: SEC-MALS
binder,measurement,setting,value
"Kar9 (full-length) (natural protein, S. cerevisiae, UniProt P32526 1-644, looked up) MDNDGPRSMTIGDDFQENFCERLERIHNTLHSINDCNSLNESTTSISETLLVQFYDDLENVASVIPDLVNKKRLGKDDILLFMDWLLLKKYMLYQFISDVHNIEEGFAHLLDLLEDEFSKDDQDSDKYNRFSPMFDVIEESTQIKTQLEPWLTNLKELLDTSLEFNEISKDHMDTLHKIINSNISYCLEIQEERFASPIRHTPSFTLEQLVKLLGTHTETTEPKVPKFSPAEDILSRKFLNLKKNIPPIEKSLTDILPQRIVQFGHRNITNITTLQTILQKKYELIMKDYRFMNSEFRELKVELIDKRWNILFINLNHELLYILDEIERLQSKLLTTKYTKDITIRLERQLERKSKTVSKTFNIIYRALEFSLLDAGVASKTNELAQRWLNIKPTADKILIKSSASNKIATSKKKIPKPKSLGFGRPNSVIGTITQDFQERVAINEGDSNKTPENSTTVALKGKKLGKALLQKMNIKPATSPNSSNAINPFFDPESPNKGKLILSSVPPLPYDETDETTLRVSRGENEKSPDSFITSRHENKVQITETPLMAKNKSVLDIEKDKWNHYRSLPSRIPIYKDKVVKVTVENTPIAKVFQTPPTKITTPNSQVWVPSTRRRTRLRPPTPLSQLLSPREGRLDKTPTY",stoichiometry N,[1],1 Kar9 monomer per Bim1 dimer
same,stoichiometry N,[2],1 Kar9 monomer per Bim1 dimer
